What was measured:
Format in all cases: binding
[1] = Probe fluorescence ratio response to palmitate:BSA complex, relative to ADIFAB2 (ΔR/ΔRAD2); details: for DR/DR PA: palmitate (PA), response relative to ADIFAB2
Protocol: (§1) The intensity ratio (“R” value) for a given probe is determined. The ratio is calculated using the following formula: R=Fλ1/Fλ2 wherein, Fλ1, is the measured fluorescence intensities (intensity of sample with probe present minus intensity of sample without probe present) at wavelength 1 and Fλ2 is the measured fluorescence intensities (intensity of sample with probe present minus intensity of sample without probe present) at wavelength 2. Then, for a given probe, ΔR, the difference in R value between the measurement in the presence of the analyte and in the absence of the analyte, is calculated as follows: ΔR=R+analyte−R0 The ΔR value for a given probe is then compared to a reference probe, for example, ADIFAB or ADIFAB2, by ΔR/ΔRreference. This value is an indication of how dissimilar the new probe (derived by mutation of the template) is to the reference. By this method, probes with new and useful characteristics may be identified. Measurements of fluorescence intensities are obtained using standard techniques.
(§2) Mutant probes were screened in 96-well plates by fluorescence response to five fatty acids: arachidonate, linolenate, linoleate, oleate, and palmitate. Each fatty acid was prepared as a complex with BSA by slow addition of 50 mM stocks of fatty acid sodium salts at pH 11 to 600 μM BSA in HEPES buffer. During the formation of complexes, 15 μL aliquots were periodically measured with the reference probe, ADIFAB2, to determine the ΔR value upon excitation at 375 nm and fluorescence emission at 550 and 457 nm using a Fluorolog-3 spectrofluorometer (Jobin Yvon) (Richieri et al, Molecular and Cellular Biochemistry (1999), 192:87-94 & Richieri et al, J. Biol. Chem. (1996), 271:31068-31074). Complexes were prepared such that the final ΔR was approximately 0.4 which correspond to [FFAu] ranging from 100 to 1000 nM depending on FFA type. These complexes buffer or clamp the FFAu levels at fixed values and therefore ensure the accurate comparison of different probes with the same FFAu concentrations. In contrast, addition of FFAu alone (i.e. uncomplexed FFA) introduces considerable uncertainty in comparing different probes because the FFAu level will be affected by binding to the dispensing device, the walls of the multi-well plates and to the probe itself. Thus, the terms “buffer” and “clamp” as used in this particular context herein are taken to mean the ability of a carrier macromolecule to complex with an unbound metabolite so that the unbound metabolite is presented accurately for measurement purposes and is prevented from non-specific binding such as binding to laboratory apparatus.
(§3) Plates were prepared and read in two stages. First, complexes and fatty acid free BSA were diluted to 6 μM BSA in HEPES and added to the 96-well plate at 300 μL per well. A MultiProbe II HT (Perkin Elmer) (an automated liquid handling system) was used to facilitate plate preparation for high throughput screening, but any automated or manual pipetting system will suffice. The background fluorescence was then measured at the same wavelengths as used for ADIFAB2 using a Fluorolog-3 spectrofluorometer with an external Micromax 384 fluorescence plate reader (Jobin Yvon). In the second stage, 30 μL aliquots of the mutant probes were added to multiple wells of the plate, one for each fatty acid and one with fatty acid free BSA only, and the fluorescence intensity at each wavelength was again measured on the plate reader. After subtraction of the background fluorescence, the fluorescence ratio of each well was calculated.
(§4) The fluorescence response was quantitatively compared to ADIFAB2 to search for changes in magnitude and fatty acid profile; for example the response to one fatty acid relative to another. For each probe the ratio differences (AR) between wells with each fatty acid compared to a corresponding well with fatty acid free BSA were recorded. […]

[2] = Probe fluorescence ratio response to arachidonate:BSA complex, relative to ADIFAB2 (ΔR/ΔRAD2); details: arachidonate (AA); response relative to ADIFAB2
Protocol: as §1, §2, §3, §4

[3] = Probe fluorescence ratio response to linolenate:BSA complex, relative to ADIFAB2 (ΔR/ΔRAD2); details: linolenate (LNA); response relative to ADIFAB2
Protocol: as §1, §2, §3, §4

[4] = Probe fluorescence ratio response to linoleate:BSA complex, relative to ADIFAB2 (ΔR/ΔRAD2); details: linoleate (LA); response relative to ADIFAB2
Protocol: as §1, §2, §3, §4

[5] = Probe fluorescence ratio response to oleate:BSA complex, relative to ADIFAB2 (ΔR/ΔRAD2); details: oleate (OA); response relative to ADIFAB2
Protocol: as §1, §2, §3, §4

B1: VQQ: probe L72V R106Q R126Q of rI-FABP (protein, UniProt P02693 2-132, looked up, variant L72V R106Q R126Q)
Fatty acid-binding protein, …: AFDGTWKVDRNENYEKFMEKMGINVVKRKLGAHDNLKLTITQEGNKFTVKESSNFRNIDVVFELGVDFAYSVADGTELTGTWTMEGNKLVGKFKRVDNGKELIAVQEISGNELIQTYTYEGVEAKQIFKKE
modifications: fluorescent label
notes: probe L72V R106Q R126Q of rI-FABP
[1]
  response to palmitic acid: does not respond to palmitic acid

B2: 47M2, L72A (protein, UniProt P02693 2-132, looked up, variant F47M L72A)
Fatty acid-binding protein, …: AFDGTWKVDRNENYEKFMEKMGINVVKRKLGAHDNLKLTITQEGNKMTVKESSNFRNIDVVFELGVDFAYSAADGTELTGTWTMEGNKLVGKFKRVDNGKELIAVREISGNELIQTYTYEGVEAKRIFKKE
modifications: acrylodan label
[2]
  DR/DR AA: 1.00
[3]
  DR/DR LNA: 0.97
[4]
  DR/DR LA: 0.99
[5]
  DR/DR OA: 0.95
[1]
  DR/DR PA: 0.83

B3: 11W1, L72A (protein, UniProt P02693 2-132, looked up, variant N11W L72A)
Fatty acid-binding protein, …: AFDGTWKVDRWENYEKFMEKMGINVVKRKLGAHDNLKLTITQEGNKFTVKESSNFRNIDVVFELGVDFAYSAADGTELTGTWTMEGNKLVGKFKRVDNGKELIAVREISGNELIQTYTYEGVEAKRIFKKE
modifications: acrylodan label
[2]
  DR/DR AA: 0.43
[3]
  DR/DR LNA: 0.39
[4]
  DR/DR LA: 0.40
[5]
  DR/DR OA: 0.22
[1]
  DR/DR PA: 0.15

B4: 47C3, L72A (protein, UniProt P02693 2-132, looked up, variant F47C L72A)
Fatty acid-binding protein, …: AFDGTWKVDRNENYEKFMEKMGINVVKRKLGAHDNLKLTITQEGNKCTVKESSNFRNIDVVFELGVDFAYSAADGTELTGTWTMEGNKLVGKFKRVDNGKELIAVREISGNELIQTYTYEGVEAKRIFKKE
modifications: acrylodan label
[2]
  DR/DR AA: 0.32
[3]
  DR/DR LNA: 0.35
[4]
  DR/DR LA: 0.37
[5]
  DR/DR OA: 0.35
[1]
  DR/DR PA: 0.23

B5: 11Q1, L72A (protein, UniProt P02693 2-132, looked up, variant N11Q L72A)
Fatty acid-binding protein, …: AFDGTWKVDRQENYEKFMEKMGINVVKRKLGAHDNLKLTITQEGNKFTVKESSNFRNIDVVFELGVDFAYSAADGTELTGTWTMEGNKLVGKFKRVDNGKELIAVREISGNELIQTYTYEGVEAKRIFKKE
modifications: acrylodan label
[2]
  DR/DR AA: 1.33
[3]
  DR/DR LNA: 1.43
[4]
  DR/DR LA: 1.37
[5]
  DR/DR OA: 1.32
[1]
  DR/DR PA: 1.19

B6: 11D1, L72A (protein, UniProt P02693 2-132, looked up, variant N11D L72A)
Fatty acid-binding protein, …: AFDGTWKVDRDENYEKFMEKMGINVVKRKLGAHDNLKLTITQEGNKFTVKESSNFRNIDVVFELGVDFAYSAADGTELTGTWTMEGNKLVGKFKRVDNGKELIAVREISGNELIQTYTYEGVEAKRIFKKE
modifications: acrylodan label
[2]
  DR/DR AA: 0.82
[3]
  DR/DR LNA: 0.86
[4]
  DR/DR LA: 0.91
[5]
  DR/DR OA: 0.92
[1]
  DR/DR PA: 0.83

B7: 14Y, 72A wt (protein, UniProt P02693 2-132, looked up, variant L72A)
Fatty acid-binding protein, …: AFDGTWKVDRNENYEKFMEKMGINVVKRKLGAHDNLKLTITQEGNKFTVKESSNFRNIDVVFELGVDFAYSAADGTELTGTWTMEGNKLVGKFKRVDNGKELIAVREISGNELIQTYTYEGVEAKRIFKKE
modifications: acrylodan label
[2]
  DR/DR AA: 1.29
[3]
  DR/DR LNA: 1.29
[4]
  DR/DR LA: 1.23
[5]
  DR/DR OA: 2.22
[1]
  DR/DR PA: 1.07

B8: 11S5, L72A (protein, UniProt P02693 2-132, looked up, variant N11S L72A)
Fatty acid-binding protein, …: AFDGTWKVDRSENYEKFMEKMGINVVKRKLGAHDNLKLTITQEGNKFTVKESSNFRNIDVVFELGVDFAYSAADGTELTGTWTMEGNKLVGKFKRVDNGKELIAVREISGNELIQTYTYEGVEAKRIFKKE
modifications: acrylodan label
[2]
  DR/DR AA: 0.33
[3]
  DR/DR LNA: 0.37
[4]
  DR/DR LA: 0.36
[5]
  DR/DR OA: 0.29
[1]
  DR/DR PA: 0.35

B9: 11F1, L72A (protein, UniProt P02693 2-132, looked up, variant N11F L72A)
Fatty acid-binding protein, …: AFDGTWKVDRFENYEKFMEKMGINVVKRKLGAHDNLKLTITQEGNKFTVKESSNFRNIDVVFELGVDFAYSAADGTELTGTWTMEGNKLVGKFKRVDNGKELIAVREISGNELIQTYTYEGVEAKRIFKKE
modifications: acrylodan label
[2]
  DR/DR AA: 0.42
[3]
  DR/DR LNA: 0.29
[4]
  DR/DR LA: 0.28
[5]
  DR/DR OA: 0.20
[1]
  DR/DR PA: 0.18

B10: 47G1, L72A (protein, UniProt P02693 2-132, looked up, variant F47G L72A)
Fatty acid-binding protein, …: AFDGTWKVDRNENYEKFMEKMGINVVKRKLGAHDNLKLTITQEGNKGTVKESSNFRNIDVVFELGVDFAYSAADGTELTGTWTMEGNKLVGKFKRVDNGKELIAVREISGNELIQTYTYEGVEAKRIFKKE
modifications: acrylodan label
[2]
  DR/DR AA: 0.51
[3]
  DR/DR LNA: 0.63
[4]
  DR/DR LA: 0.66
[5]
  DR/DR OA: 0.59
[1]
  DR/DR PA: 0.32

B11: 47H1, L72A (protein, UniProt P02693 2-132, looked up, variant F47H L72A)
Fatty acid-binding protein, …: AFDGTWKVDRNENYEKFMEKMGINVVKRKLGAHDNLKLTITQEGNKHTVKESSNFRNIDVVFELGVDFAYSAADGTELTGTWTMEGNKLVGKFKRVDNGKELIAVREISGNELIQTYTYEGVEAKRIFKKE
modifications: acrylodan label
[2]
  DR/DR AA: 0.63
[3]
  DR/DR LNA: 0.70
[4]
  DR/DR LA: 0.74
[5]
  DR/DR OA: 0.67
[1]
  DR/DR PA: 0.43

B12: 40V1, L72A (protein, UniProt P02693 2-132, looked up, variant I40V L72A)
Fatty acid-binding protein, …: AFDGTWKVDRNENYEKFMEKMGINVVKRKLGAHDNLKLTVTQEGNKFTVKESSNFRNIDVVFELGVDFAYSAADGTELTGTWTMEGNKLVGKFKRVDNGKELIAVREISGNELIQTYTYEGVEAKRIFKKE
modifications: acrylodan label
[2]
  DR/DR AA: 1.20
[3]
  DR/DR LNA: 1.28
[4]
  DR/DR LA: 1.24
[5]
  DR/DR OA: 1.21
[1]
  DR/DR PA: 0.91

B13: 11I1, L72A (protein, UniProt P02693 2-132, looked up, variant N11I L72A)
Fatty acid-binding protein, …: AFDGTWKVDRIENYEKFMEKMGINVVKRKLGAHDNLKLTITQEGNKFTVKESSNFRNIDVVFELGVDFAYSAADGTELTGTWTMEGNKLVGKFKRVDNGKELIAVREISGNELIQTYTYEGVEAKRIFKKE
modifications: acrylodan label
[2]
  DR/DR AA: 0.58
[3]
  DR/DR LNA: 0.51
[4]
  DR/DR LA: 0.55
[5]
  DR/DR OA: 0.39
[1]
  DR/DR PA: 1.19

B14: 47T1, L72A (protein, UniProt P02693 2-132, looked up, variant F47T L72A)
Fatty acid-binding protein, …: AFDGTWKVDRNENYEKFMEKMGINVVKRKLGAHDNLKLTITQEGNKTTVKESSNFRNIDVVFELGVDFAYSAADGTELTGTWTMEGNKLVGKFKRVDNGKELIAVREISGNELIQTYTYEGVEAKRIFKKE
modifications: acrylodan label
[2]
  DR/DR AA: 0.68
[3]
  DR/DR LNA: 0.74
[4]
  DR/DR LA: 0.77
[5]
  DR/DR OA: 0.74
[1]
  DR/DR PA: 0.46

B15: 47S1, L72A (protein, UniProt P02693 2-132, looked up, variant F47S L72A)
Fatty acid-binding protein, …: AFDGTWKVDRNENYEKFMEKMGINVVKRKLGAHDNLKLTITQEGNKSTVKESSNFRNIDVVFELGVDFAYSAADGTELTGTWTMEGNKLVGKFKRVDNGKELIAVREISGNELIQTYTYEGVEAKRIFKKE
modifications: acrylodan label
[2]
  DR/DR AA: 0.61
[3]
  DR/DR LNA: 0.69
[4]
  DR/DR LA: 0.66
[5]
  DR/DR OA: 0.64
[1]
  DR/DR PA: 0.34

B16: 40F2, L72A (protein, UniProt P02693 2-132, looked up, variant I40F L72A)
Fatty acid-binding protein, …: AFDGTWKVDRNENYEKFMEKMGINVVKRKLGAHDNLKLTFTQEGNKFTVKESSNFRNIDVVFELGVDFAYSAADGTELTGTWTMEGNKLVGKFKRVDNGKELIAVREISGNELIQTYTYEGVEAKRIFKKE
modifications: acrylodan label
[2]
  DR/DR AA: 0.89
[3]
  DR/DR LNA: 0.99
[4]
  DR/DR LA: 0.90
[5]
  DR/DR OA: 0.90
[1]
  DR/DR PA: 0.80

— patent US20050244864A1, “Development and use of fluorescent probes of unbound analytes” (priority 2004, published 2005)
